Assay results: patent US20240092857A1

Columns and labels:
[1] = system: DLK1 extracellular domain (ECD), soluble, exogenously added
[2] = molecular target: TGFBR1 (UniProt P36897); assay: STED microscopy of KG1a-DLK1-GFP cells, 3691 condensates over 10 images
[3] = molecular target: Presenilin-1 (UniProt P49768); assay: STED microscopy of KG1a-DLK1-GFP cells, 1864 condensates over 10 images

Chain of UniProt P36897 (P36897 34-503 limits assumed): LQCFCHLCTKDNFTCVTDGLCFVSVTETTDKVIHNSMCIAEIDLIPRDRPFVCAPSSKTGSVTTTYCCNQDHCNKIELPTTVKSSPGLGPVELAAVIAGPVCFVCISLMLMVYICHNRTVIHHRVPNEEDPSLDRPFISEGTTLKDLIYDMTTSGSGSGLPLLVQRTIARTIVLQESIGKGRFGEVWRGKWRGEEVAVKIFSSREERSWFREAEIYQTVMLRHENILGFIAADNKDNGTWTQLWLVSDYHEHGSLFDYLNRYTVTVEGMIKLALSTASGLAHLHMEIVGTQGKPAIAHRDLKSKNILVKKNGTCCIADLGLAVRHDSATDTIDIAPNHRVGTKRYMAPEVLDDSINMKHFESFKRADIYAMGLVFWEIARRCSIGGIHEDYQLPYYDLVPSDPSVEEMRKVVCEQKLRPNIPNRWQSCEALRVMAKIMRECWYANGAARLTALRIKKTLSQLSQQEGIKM

| Substance | Notch receptor cleavage, western blot of Notch1 cleaved at Valine 1744 (FIG. 14B) [1] | percent of DLK1 in the PM that overlaps with TGFBR1 (co-localization) [2] | percent of TGFBR1 that overlaps with DLK1 (co-localization) [2] | percent of DLK1 in the PM that overlaps with PSEN1 (co-localization) [3] | percent of PSEN1 that overlaps with DLK1 (co-localization) [3] |
| --- | --- | --- | --- | --- | --- |
| Presenilin-1 | reduces Notch receptor cleavage |  |  |  |  |
| full-length DLK1 isoform with a C-terminal fusion to GFP, expressed in KG1a cells (from UniProt P80370 24-383) |  | 75% | 75% | 80% | 75% |
